Source: patent US20110217237A1 (AbbVie / Abbott, published 2011)
Where a chain is given by its changes, count along the chain named. Values belong to the binder of their own block, whether it stands above or below them.

Experiments:
[1] = biological target: T1, human DLL4 extracellular domain (human, UniProt Q9NR61 27-529); experiment: SPR (Biacore)
T1 construct: purified recombinant ECD; biotin-labelled or 6xHis-tagged depending on the assay; also called huDLL4 ECD; hu DLL4 ECD
Procedure: Binding of DLL4 antibodies to a purified recombinant DLL4 extracellular domain (ECD) was determined by surface plasmon resonance-based measurements with a Biacore® instrument (either a Biacore 2000, Biacore 3000, or Biacore T100; GE Healthcare, Piscataway, N.J., US) using running buffer HBS-EPB (10 mM HEPES [pH 7.4], 150 mM NaCl, 3 mM EDTA, 0.1 mg/ml BSA and 0.005% surfactant P20) at 25° C. For example, approximately 9000 RU of goat anti-human Fc specific polyclonal antibody (Thermo Fisher Scientific Inc., Rockford, Ill., US) diluted in 10 mM sodium acetate (pH 4.5) is directly immobilized across a CMS research grade biosensor chip using a standard amine coupling kit according to manufacturer's instructions and procedures at 25 μg/ml. Unreacted moieties on the biosensor surface were blocked with ethanolamine. For kinetic analysis, rate equations derived from the 1:1 Langmuir binding model were fitted simultaneously to multiple antigen injections (using global fit analysis) with the use of Scrubber 2 (BioLogic Software), Biacore Biaevaluation 4.0.1 software or Biacore T100 Evaluation software. Purified antibodies were diluted in running buffer for capture across goat anti-human Fc reaction surfaces. Antibodies to be captured as a ligand (1 μg/ml) were injected over reaction matrices at a flow rate of 10 μl/min. During the assay, all measurements were referenced against the capture surface alone (i.e., with no captured anti-DLL4 antibody). […] The equilibrium dissociation constant KD (M) of the reaction between antibodies and the target antigen was then calculated from the kinetic rate constants by the following formula: KD=Koff/Kₒₙ. Binding was recorded as a function of time and kinetic rate constants were calculated. In this assay, on-rates as fast as 10⁶ M⁻¹s⁻¹ and off-rates as slow as 10⁻⁶ s⁻¹ could be measured.
The good binder variants, as determined by binding ELISA, were assessed by Biacore (Example 1.1) concurrently with cell based assay screens.

[2] = biological target: T2, human DLL4, full length, on cells (human, UniProt Q9NR61 27-685); experiment: FACS, DLL4 cells
T2 construct: also called huDLL4 cells; human DLL4-293G
T2 sequence (Q9NR61 27-685 limits assumed): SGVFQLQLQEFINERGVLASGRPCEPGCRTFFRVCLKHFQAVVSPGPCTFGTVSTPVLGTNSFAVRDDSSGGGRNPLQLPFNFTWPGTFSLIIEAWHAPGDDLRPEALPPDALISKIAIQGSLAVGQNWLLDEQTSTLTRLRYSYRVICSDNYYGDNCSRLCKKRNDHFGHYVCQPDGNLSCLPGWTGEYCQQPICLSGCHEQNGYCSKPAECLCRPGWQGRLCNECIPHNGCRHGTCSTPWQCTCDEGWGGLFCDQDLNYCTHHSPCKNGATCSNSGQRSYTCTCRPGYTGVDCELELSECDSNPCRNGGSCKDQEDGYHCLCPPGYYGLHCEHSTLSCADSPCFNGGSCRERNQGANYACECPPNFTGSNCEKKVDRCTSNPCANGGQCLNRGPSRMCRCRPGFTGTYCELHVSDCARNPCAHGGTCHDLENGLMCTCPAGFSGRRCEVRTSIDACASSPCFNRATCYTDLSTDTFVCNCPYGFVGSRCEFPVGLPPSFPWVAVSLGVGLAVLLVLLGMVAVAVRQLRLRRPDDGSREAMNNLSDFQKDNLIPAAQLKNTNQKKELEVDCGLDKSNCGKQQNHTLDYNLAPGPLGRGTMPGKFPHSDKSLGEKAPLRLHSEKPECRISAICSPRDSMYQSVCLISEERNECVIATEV
Procedure: Stable cell lines overexpressing cell-surface DLL4 were harvested from tissue culture flasks, washed four times and resuspended in phosphate buffered saline (PBS) containing 1% bovine serum albumin and 1 mM CaCl₂ (FACS buffer). 1.5×10⁵ cells were incubated with antibodies at various concentrations in FACS buffer for 60 minutes on ice. […] Following an incubation on ice (4° C., 60 minutes), cells were washed three times and resuspended in FACS buffer. Fluorescence was measured using a Becton Dickinson FACSCalibur-HTS (Becton Dickinson, San Jose, Calif., US). Data were analyzed using Graphpad Prism software and EC₅₀ values were reported as the concentration of antibody to achieve 50% of maximal DLL4 antibodies binding to DLL4 expressing cells.
The good binder variants, as determined by binding ELISA, were assessed by Biacore (Example 1.1) concurrently with cell based assay screens. The KD for human DLL4 was similar for all variants (see, Biacore, KD in Table 18, below).

[3] = biological target: T2, human DLL4, full length, on cells; experiment: cell-based or functional assay
[4] = biological target: T1, human DLL4 extracellular domain; experiment: competition ELISA vs Notch-1 Fc
Procedure: Plates were then washed 3 times with wash buffer (PBS, 0.05% Tween-20) and blocked with 200 μl/well blocking buffer (D-PBS, 1% BSA, 1 mM CaCl₂, 0.05% Tween-20) for 1 hour at 25° C. While blocking, biotin labeled DLL4 extracellular domain (14 nM) was mixed with antibody (30 pM-66 nM, 3-fold serial dilution in blocking buffer) for 1 hour at 25° C. with shaking. Assay plates were washed after blocking, and incubated with DLL4/antibody mixtures (100 μl/well, 1 hour at 25° C. with shaking). Plates were washed again and 100 μl/well streptavidin conjugated with HRP (Fitzgerald #65R-S104PHRPx, diluted 1:5,000 in blocking buffer) was added for 1 hour at 25° C. with shaking. After a final wash, plates were developed using 100 μl/well substrate (TMB Sigma #T8665), and the reaction was stopped using 100 μl/well 1N HCl, and the absorbance was read at 450 nm. Data were analyzed using Graphpad Prism software and IC₅₀ values were reported as the concentration of antibody to achieve 50% reduction of DLL4 bound to Notch1.
Purified variants were further characterized in human Notch-1 competition ELISAs (Example 1.4), which used a format of plating Notch-1 Fc onto ELISA plates and pre-incubating biotinylated human DLL4 plus titrated antibody. Signal was assessed by free biotinylated DLL4 binding to Notch-1 Fc.

[5] = biological target: T1, human DLL4 extracellular domain; experiment: capture ELISA, biotin-huDLL4 ECD

T1 sequence (Q9NR61 27-529 limits assumed): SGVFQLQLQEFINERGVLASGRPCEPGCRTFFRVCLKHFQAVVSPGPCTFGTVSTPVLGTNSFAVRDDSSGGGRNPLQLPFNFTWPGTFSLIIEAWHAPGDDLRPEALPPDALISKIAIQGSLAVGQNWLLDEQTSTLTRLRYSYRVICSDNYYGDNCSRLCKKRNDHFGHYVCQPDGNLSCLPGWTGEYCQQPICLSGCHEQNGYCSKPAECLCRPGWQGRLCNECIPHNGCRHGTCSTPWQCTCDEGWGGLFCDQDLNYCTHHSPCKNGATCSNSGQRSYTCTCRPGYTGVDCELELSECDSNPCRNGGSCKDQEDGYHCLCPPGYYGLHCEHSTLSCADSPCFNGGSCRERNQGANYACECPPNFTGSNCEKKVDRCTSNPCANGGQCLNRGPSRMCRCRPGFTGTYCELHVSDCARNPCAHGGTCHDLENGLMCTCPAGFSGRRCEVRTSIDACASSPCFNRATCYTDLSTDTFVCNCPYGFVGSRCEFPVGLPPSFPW

Kd [1]: 0.554 nM
EC50 [2]: 2.48 nM
Notch Reporter Assay EC50 [3]: 0.657 nM
EC50 [4]: 3.8 nM
EC50 [5]: 0.126 nM
B1: h38H12.11 (antibody, V domains shown)
VH: EVQLVESGGGVVQPGRSLRLSCAASGFTFSNYGMYWVRQAPGKGLEWVAFISHGGGITYYRDSVKGRFTISRDNSKNTLYLQMNSLRAEDTAVYYCAALNWELGIDYWGQGTMVTVSS
VL: DIQMTQSPSSLSASVGDRVTITCRASEDIYSNLAWYQQKPGKAPKLLIYAANRLQDGVPSRFSGSGSGTDYTLTISSLQPEDFATYYCLQGSKFPLTFGQGTKLEIKR
notes: humanized IgG; also called VH.1b/VL.1b 38H12

Kd [1]: 0.819 nM
EC50 [2]: 1.48 nM
Notch Reporter Assay EC50 [3]: 1.06 nM
EC50 [4]: 3.23 nM
EC50 [5]: 0.165 nM
B2: h38H12.12 (antibody, V domains shown)
VH: B1 VH
VL: EIVMTQSPATLSVSPGERATLSCRASEDIYSNLAWYQKKPGQSPRLLIYAANRLQDGVPARFSGSGSGTEYTLTISSLQSEDFAVYFCLQGSKFPLTFGQGTKLEIKR
notes: humanized IgG; also called VH.1b/VL.2a 38H12

Kd [1]: 0.34 nM
EC50 [2]: 19.1 nM
Notch Reporter Assay EC50 [3]: 2.6 nM
EC50 [4]: 12.5 nM
EC50 [5]: 0.18 nM
B3: h38H12.7 (antibody, V domains shown)
VH: B1 VH with V37I, N77S, Y95H
VL: B1 VL
notes: humanized IgG; also called VH.1a/VL.1b 38H12

Kd [1]: 0.507 nM
EC50 [2]: 2.56 nM
Notch Reporter Assay EC50 [3]: 0.794 nM
EC50 [4]: 5.29 nM
EC50 [5]: 0.153 nM
B4: h38H12.13 (antibody, V domains shown)
VH: B1 VH with V11L, R16G, V37I, N77S, Y95H
VL: B1 VL with Y71F
notes: humanized IgG; also called VH.2a/VL.1 38H12

Kd [1]: 0.355 nM
EC50 [2]: 2.37 nM
Notch Reporter Assay EC50 [3]: 0.837 nM
EC50 [4]: 5.71 nM
EC50 [5]: 0.0904 nM
B5: h38H12.15 (antibody, V domains shown)
VH: B1 VH with V11L, R16G, V37I, N77S, Y95H
VL: B1 VL
notes: humanized IgG; also called VH.2a/VL.1b 38H12

Kd [1]: 0.986 nM
EC50 [2]: 3.71 nM
Notch Reporter Assay EC50 [3]: 1.44 nM
EC50 [4]: 4.16 nM
EC50 [5]: 0.116 nM
B6: h38H12.9 (antibody, V domains shown)
VH: B1 VH
VL: B1 VL with Y71F
notes: humanized IgG; also called VH.1b/VL.1 38H12

Kd [1]: 0.578 nM
EC50 [2]: 2.49 nM
Notch Reporter Assay EC50 [3]: 0.786 nM
EC50 [4]: 3.9 nM
EC50 [5]: 0.123 nM
B7: h38H12.10 (antibody, V domains shown)
VH: B1 VH
VL: B1 VL with Q38K, A43S, Y87F
notes: humanized IgG; also called VH.1b/VL.1a 38H12

Kd [1]: 0.401 nM
EC50 [2]: 77.2 nM
Notch Reporter Assay EC50 [3]: 7.31 nM
EC50 [4]: 14.8 nM
EC50 [5]: 0.202 nM
B8: h38H12.5 (antibody, V domains shown)
VH: B1 VH with V37I, N77S, Y95H
VL: B1 VL with Y71F
notes: humanized IgG; also called VH.1a/VL.1 38H12

Kd [1]: 0.303 nM
EC50 [2]: 1.04 nM
Notch Reporter Assay EC50 [3]: 1.01 nM
EC50 [4]: 5.84 nM
EC50 [5]: 0.146 nM
B9: h38H12.14 (antibody, V domains shown)
VH: B1 VH with V11L, R16G, V37I, N77S, Y95H
VL: B1 VL with Q38K, A43S, Y87F
notes: humanized IgG; also called VH.2a/VL.1a 38H12

EC50 [2]: 17.8 nM
EC50 [5]: 21.5 nM
B10: h38H12.1 (antibody, V domains shown)
VH: B1 VH with A98R
VL: B1 VL with Y71F
notes: humanized IgG; also called VH.1/VL.1 38H12

Kd [1]: 0.397 nM
EC50 [2]: 20 nM
Notch Reporter Assay EC50 [3]: 5.56 nM
EC50 [4]: 8.31 nM
EC50 [5]: 0.197 nM
B11: h38H12.8 (antibody, V domains shown)
VH: B1 VH with V37I, N77S, Y95H
VL: B2 VL
notes: humanized IgG; also called VH.1a/VL.2a 38H12

EC50 [5]: 20.6 nM
B12: h38H12.4 (antibody, V domains shown)
VH: B1 VH with A98R
VL: B2 VL
notes: humanized IgG; also called VH.1/VL.2a 38H12

Kd [1]: 0.392 nM
EC50 [2]: 2.91 nM
Notch Reporter Assay EC50 [3]: 1.19 nM
EC50 [4]: 3.77 nM
EC50 [5]: 0.17 nM
B13: h38H12.16 (antibody, V domains shown)
VH: B1 VH with V11L, R16G, V37I, N77S, Y95H
VL: B2 VL
notes: humanized IgG; also called VH.2a/VL.2a 38H12

Kd [1]: 0.434 nM
EC50 [2]: 12.3 nM
Notch Reporter Assay EC50 [3]: 6.32 nM
EC50 [4]: 27 nM
EC50 [5]: 0.158 nM
B14: h38H12.6 (antibody, V domains shown)
VH: B1 VH with V37I, N77S, Y95H
VL: B1 VL with Q38K, A43S, Y87F
notes: humanized IgG; also called VH.1a/VL.1a 38H12
